Source: the supplement of paper PMC10724198
± gives the standard deviation of the averaged measurements.

Test system: Saccharomyces cerevisiae
Experiment: protein stability index of tFT-peptide fusion (C-terminal peptide) (PSI (0-1 scale)); higher = more stable (slower turnover)
Conditions: genetic background: wild type; temperature: 30 C
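Further: PSI is a weighted mean of sequencing reads over stability bins, variants kept only with over 10 reads, mCherry proximal and sfGFP distal, peptide attached via GGGS linker.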

Point of comparison: QVGSLEIFLCFI, protein stability index 0.6323 ± 0.0016. Against it:
- QTIKKKKKDKKN — higher, 0.764 ± 0.011
- QTNIGRKRTLPR — higher, 0.718 ± 0.013
- QTQNEENKKQKY — within error, 0.612 ± 0.13
- QTVKNYTSQSKR — higher, 0.666 ± 0.018
- QTWVQIGIRITL — lower, 0.44 ± 0.087
- QVGGVRSRGAAG — higher, 0.664 ± 0.017
- QVKVGQTEMAYN — within error, 0.78 ± 0.22
- QVLIKKRNIKKK — within error, 0.651 ± 0.076
- QVNSAHKRTGSG — within error, 0.668 ± 0.061
- QVVIGRLSSQVG — within error, 0.664 ± 0.038
- QWFTCLFYFRSP — lower, 0.5697 ± 0.0029
- QYGMSSQGGGHN — higher, 0.7312 ± 0.0017
- QYKEFYYQNNRR — lower, 0.562 ± 0.062
- QYMDQIKGRSGT — higher, 0.723 ± 0.0079
- RAADGWGVLCGV — within error, 0.679 ± 0.095
- RAAREASQDIPN — within error, 0.753 ± 0.12
- RACVCPCHPHRY — higher, 0.737 ± 0.025
- RAGFSEPCGSFS — within error, 0.668 ± 0.046
- RAGGGAWAGGVA — higher, 0.7085 ± 0.0024
- RAGSLTSGVCGP — higher, 0.663 ± 0.015
- RAIPRPLPPRRI — higher, 0.7164 ± 0.0029
- RAIPTWPIGDRR — within error, 0.655 ± 0.029
- RALGVPPLSHLP — within error, 0.656 ± 0.036
- RALLGSVVCSYG — lower, 0.6268 ± 0.0016
- RALPSPPPCPPG — lower, 0.524 ± 0.031
- RAPCSLDFRGNA — higher, 0.758 ± 0.12
- RAPNSVPSIKKP — within error, 0.68 ± 0.098
- RAPPRLHPPFPP — within error, 0.676 ± 0.11
- RAPSLLRPRSPP — within error, 0.658 ± 0.12
- RAPTRDQCPCPG — higher, 0.68 ± 0.035
- RARFSASCRYRV — within error, 0.671 ± 0.048
- RARYGPSYTLPL — within error, 0.642 ± 0.027
- RASAHLVAIVRY — within error, 0.642 ± 0.02
- RASLPKSLPVSY — within error, 0.604 ± 0.07
- RASRGLGWRRND — higher, 0.66 ± 0.015
- RATRLFPPPHFS — higher, 0.7 ± 0.037
- RAVFNMSSPSHI — higher, 0.711 ± 0.077
- RCCGGSEVVRAG — higher, 0.705 ± 0.014
- RCGGGKWWRGAE — higher, 0.6566 ± 0.0035
- RCGSWKGVRGVM — higher, 0.693 ± 0.032
- RCLPSASYPACS — within error, 0.691 ± 0.074
- RCRLGDFLLSFI — within error, 0.63 ± 0.034
- RCVGVTNESTGT — higher, 0.661 ± 0.013
- RDGGVHVFATLM — within error, 0.626 ± 0.018
- RDGHGRHGRGER — within error, 0.634 ± 0.024
- RDLGGECARQVG — higher, 0.7 ± 0.04
- RDMVSPLPLPLL — within error, 0.613 ± 0.11
- RDNKTHSKRAYG — within error, 0.648 ± 0.024
- RDRFSWGRRSDN — higher, 0.696 ± 0.041
- RDRVSASILVLP — higher, 0.6892 ± 0.0056
- REENIKSKCRKI — higher, 0.742 ± 0.021
- REGGEIGDQEGT — within error, 0.674 ± 0.069
- REKERKRGKAVK — higher, 0.698 ± 0.019
- RERASCHSHTNS — higher, 0.675 ± 0.013
- RERKEVGRRRIG — lower, 0.604 ± 0.022
- RESSAYPPPGEG — higher, 0.6551 ± 0.005
- RESTGRDQRGIV — higher, 0.673 ± 0.018
- RESVLRVGCFQP — higher, 0.742 ± 0.072
- RFCGSGPIVPGQ — higher, 0.707 ± 0.019
- RFETKERGIREK — higher, 0.719 ± 0.014
- RFGCGRRGQWMR — higher, 0.722 ± 0.06
- RFGHLLRFSWLL — higher, 0.6477 ± 0.0057
- RFGLIFTSPHPL — within error, 0.63 ± 0.013
- RFLEKNKKVIDK — higher, 0.742 ± 0.037
- RFLVFLLNFISI — lower, 0.564 ± 0.037
- RFMDPFSGITAF — higher, 0.716 ± 0.018
- RFVGVGWRVEGG — higher, 0.676 ± 0.019
- RGALGGGSNRLA — within error, 0.788 ± 0.26
- RGARWRAGIGRG — higher, 0.739 ± 0.088
- RGCGRLDGRRGG — higher, 0.704 ± 0.015
- RGCTVHSLNSSY — higher, 0.6757 ± 0.0022
- RGCVKQGLYCVL — higher, 0.679 ± 0.044
- RGDIQASKRIHL — higher, 0.752 ± 0.046
- RGDVGVGHWVGG — higher, 0.708 ± 0.0093
- RGEGLRYVQGSR — within error, 0.668 ± 0.042
- RGFWRGGVVRGG — higher, 0.73 ± 0.021
- RGGGRGGRPRMC — within error, 0.607 ± 0.085
- RGGPTRVSLPPR — higher, 0.654 ± 0.016
- RGGRGLAAGAWW — higher, 0.7035 ± 0.0055
- RGGVGLEGEGGE — within error, 0.615 ± 0.026
- RGGVRGAIHSDL — higher, 0.7039 ± 0.0025
- RGHKHSNNVSRR — higher, 0.696 ± 0.019
- RGKKGQKEPAEK — higher, 0.688 ± 0.048
- RGLSGSHRAGIV — higher, 0.69334 ± 0.00034
- RGPPMPGRRGRA — higher, 0.7 ± 0.052
- RGPPRRLQCLGR — higher, 0.7121 ± 0.003
- RGPRVVYYRLYV — within error, 0.722 ± 0.12
- RGRDLSLCQFFY — higher, 0.7364 ± 0.0024
- RGRPEVRPPGHY — higher, 0.707 ± 0.03
- RGSILTTVNPPR — within error, 0.75 ± 0.13
- RGSSWSRVAGDG — within error, 0.631 ± 0.063
- RGTGRLDRLGLR — within error, 0.662 ± 0.043
- RGVCGVGLYTGG — higher, 0.657 ± 0.02
- RGVGCDMGGDGG — within error, 0.65 ± 0.042
- RGVGLGRWGPVV — higher, 0.652 ± 0.0081
- RGVGVRYGVARR — higher, 0.6695 ± 0.006
- RGVTEYDSGSSL — within error, 0.647 ± 0.045
- RGWVAGGSSAWS — within error, 0.673 ± 0.054
- RGWVGGGSSAWS — within error, 0.651 ± 0.024
- RGWWVLCGGGWG — lower, 0.567 ± 0.026
- RHAVNAQPVARP — within error, 0.647 ± 0.036
- RHHRACLNTRLG — within error, 0.671 ± 0.065
- RHISRIYVERRY — higher, 0.695 ± 0.02
- RHRGVYMDRGCL — within error, 0.663 ± 0.053
- RHRPLPETDLAS — higher, 0.708 ± 0.016
- RHSSRYLIEFDN — higher, 0.744 ± 0.03
- RHYGRSLRLIKT — lower, 0.59 ± 0.011
- RHYLWAECGSSE — higher, 0.709 ± 0.017
- RIALWPTSMPAL — higher, 0.684 ± 0.041
- RIAWTKEKMGKT — higher, 0.661 ± 0.024
- RIDHYIFYVNAV — higher, 0.675 ± 0.017
- RIFSPVFLSMSV — within error, 0.649 ± 0.018
- RIGKKKRYNEKS — higher, 0.751 ± 0.062
- RIINRATIIIKL — lower, 0.564 ± 0.0065
- RIKEYITDEKNR — within error, 0.674 ± 0.056
- RINIDLKKIAKK — higher, 0.689 ± 0.05
- RIRGPECDLWFR — higher, 0.707 ± 0.019
- RIRTLASRRLEG — within error, 0.709 ± 0.1
- RISIHGECHFHK — higher, 0.654 ± 0.014
- RIVVDIYANRRG — higher, 0.689 ± 0.02
- RKDDRPYIRETS — higher, 0.701 ± 0.016
- RKDKKKKGSKEE — higher, 0.69 ± 0.046
- RKEQEDVHNKKK — within error, 0.671 ± 0.051
- RKEVKAWKTTDI — higher, 0.694 ± 0.013
- RKKKKKKENKRR — higher, 0.754 ± 0.054
- RKKKKKKKKKSN — within error, 0.631 ± 0.089
- RKKQKKQKKKKG — higher, 0.682 ± 0.0092
- RKKRFENKKEKY — higher, 0.731 ± 0.057
- RKNHKKNHKTRI — within error, 0.65 ± 0.087
- RKNKQVDLCHRE — higher, 0.676 ± 0.037
- RKSRKPNSEPKR — higher, 0.717 ± 0.0072
- RKSTVILLLTDT — within error, 0.668 ± 0.054
- RKTKKEEKTKRN — within error, 0.719 ± 0.2
- RKVTQSKQGKKR — higher, 0.722 ± 0.0093
- RKYKKKKGSKEE — higher, 0.708 ± 0.063
- RLCPNSITLPSL — higher, 0.7156 ± 0.0018
- RLDVVGVPERTL — higher, 0.762 ± 0.047
- RLEKGEDREGKK — within error, 0.641 ± 0.085
- RLEMPSVRSCAV — within error, 0.638 ± 0.17
- RLFGFGEQKIEE — higher, 0.695 ± 0.021
- RLGERGAKPQGR — within error, 0.635 ± 0.0074
- RLGGTMVVGTGG — within error, 0.661 ± 0.041
- RLGHAIVLLLPC — lower, 0.57 ± 0.027
- RLGKRKKPYTQG — higher, 0.756 ± 0.077
- RLGLQWGEFGTL — higher, 0.72 ± 0.033
- RLHHQYSEATIS — higher, 0.703 ± 0.027
- RLHSLFVSCPTC — higher, 0.703 ± 0.023
- RLIPYPPPLSLP — higher, 0.724 ± 0.021
- RLLGLWGEVMGF — higher, 0.731 ± 0.021
- RLLGSGHCLLYI — within error, 0.613 ± 0.047
- RLPAFSSDLLRH — higher, 0.704 ± 0.046
- RLPLRVTGIPVD — higher, 0.6668 ± 0.0016
- RLPPPLPQAPPT — higher, 0.712 ± 0.023
- RLPQIHSDREQK — higher, 0.746 ± 0.018
- RLPSPPTAPAPP — higher, 0.658 ± 0.0084
- RLRASFFFSPAL — higher, 0.733 ± 0.056
- RLRFIGDCKSST — within error, 0.637 ± 0.031
- RLRGLLSPVGPQ — higher, 0.716 ± 0.047
- RLRVIMVSVGGV — lower, 0.544 ± 0.0079
- RLSDFFSPPLLP — higher, 0.717 ± 0.047
- RLSMCLDDPPRL — higher, 0.717 ± 0.025
- RLSPGSPSPFPC — higher, 0.691 ± 0.029
- RLSSFDELSDVY — higher, 0.729 ± 0.026
- RLYTNEMIRGSF — higher, 0.69 ± 0.04
- RMGGRGGRLGAE — higher, 0.657 ± 0.018
- RMGWSGKVGVVG — higher, 0.78 ± 0.11
- RMNSDMKDTEAQ — higher, 0.65 ± 0.0075
- RNARSPACRTRR — higher, 0.7481 ± 0.0052
- RNFWIYTHTRCR — within error, 0.668 ± 0.049
- RNKLEKKIYKRS — higher, 0.672 ± 0.014
- RNKSRMWKEIIR — within error, 0.657 ± 0.069
- RNRAGHVGCYGL — higher, 0.6989 ± 0.0066
- RNRSNTQAKVIR — higher, 0.6725 ± 0.004
- RNTKGTIKKKKE — higher, 0.715 ± 0.074
- RNTPFVCVRNGA — within error, 0.726 ± 0.16
- RPAFSPDVSPPS — higher, 0.716 ± 0.013
- RPEAVARIFDDE — higher, 0.724 ± 0.013
- RPFLSVLPLFFP — higher, 0.734 ± 0.0017
- RPFSSPSPSLPA — higher, 0.743 ± 0.071
- RPGGSRTEGRRT — higher, 0.683 ± 0.033
- RPPISLGSLLVG — within error, 0.714 ± 0.1
- RPPPAAPLHITS — higher, 0.714
- RPPPHPPFPPRF — higher, 0.714 ± 0.052
- RPPPLPLPPHFP — higher, 0.709 ± 0.069
- RPPPPLSPPSLV — higher, 0.73 ± 0.0084
- RPPRPSSSPLPP — higher, 0.719 ± 0.059
- RPPSLWRSSFTP — higher, 0.6822 ± 0.0026
- RPQNDRKMRKVE — within error, 0.621 ± 0.059
- RPRELHNSETVY — higher, 0.683 ± 0.025
- RPRTLLARSTHP — higher, 0.717 ± 0.013
- RPRVDLCDINPE — higher, 0.692 ± 0.021
- RPSHPPHLPPPV — higher, 0.6753 ± 0.0044
- RPSLSPLHVPPS — higher, 0.748 ± 0.047
- RPVRYVLSGGCI — higher, 0.68 ± 0.012
- RPYKINNNIEVK — higher, 0.676 ± 0.01
- RQEKITQHRARI — higher, 0.689 ± 0.024
- RQLGELASARWL — higher, 0.709 ± 0.025
- RQPRPPDDIASV — higher, 0.678 ± 0.032
- RQRSKEPVVQAY — within error, 0.654 ± 0.046
- RQSSPKQDRKPS — within error, 0.679 ± 0.048
- RRATHTRDINNL — within error, 0.643 ± 0.015
